Source: US20260241035A1, “FUNCTIONAL NUCLEIC ACID MOLECULE AND METHOD” (THE UNIVERSITY COURT OF THE UNIVERSITY OF EDINBURGH, priority 2022, published 2026)

Columns and labels:
Assay type in all cases: cell-based, human
[1] = test system: GSC patient lines E31 and E55; assay: Lentivirus SSE-7-mCherry reporter, flow cytometry in GSC patient lines
Text: FIG. 14: Exemplary SSE-7 also has good activity when deployed with lentivirus. Flow cytometry quantitation of levels of mCherry reporter in GSCs transduced with lentivirus harbouring SSE-7-mCherry reporters.

GSC7 cells [2] = assay: AAV2 transduction: mCherry (flow cytometry) and HSV-TKv5 (western blot) expression in GSC7; conditions: AAV2 HSV-TK-v5-P2A-mCherry cassette
Procedure: (§1) For flow cytometry, cells were detached, pelleted and resuspended in an appropriate volume of flow cytometry buffer (1% BSA in PBS, v/v). Cells were stained with Draq7 (Abcam, ab109202, f.c. 0.1 μM) as a live/dead stain and analysed using the BD LSRFortessa cell analyser (4 lasers, BD Bioscience). Analysis of flow cytometry data was carried out in the FlowJo Analysis software (FlowJo, version 10.6.2).
(§2) Cells were scraped in PBS and spun down at […] twice to remove all liquid. Cell pellets were resuspended in 70 μl of RIPA buffer (50 mM Tris-HCl pH 8.0, 150 mM NaCl, 1% NP-40, 0.5% deoxycholate, 0.1% SDS and protease inhibitor (Complete, Roche, 11697498001) and incubated for 5 min on ice. Lysates were centrifuged at 13000 rpm for 10 min at 4° C. (centrifuge 5415D, Eppendorf). And the supernatant was collected in a new tube. Protein extracts were quantified using the Pierce BCA Protein Assay Kit (Thermo Scientific, Cat: 23225) according to the manufacturer's instructions.
(§3) HEK293 cells are seeded the day before the transfection into a 6 well plates so that on the day of transfection confluence would be at 60-70%. Before HEK293 cells are transfected with PEI a media change is carried out as this media will be conditioned with virus over the for two days. […] Cells are analysed on the microscope or flow cytometry. […]

[3] = test system: patient-derived glioblastoma cell lines (GSC7, E17, E21, E28, E31, E34); assay: SSE-7 activity (% mCherry) across patient-derived glioblastoma cell lines
Text: FIG. 7: Activity of SSE-7 in a range of GSCs. (A) Schematic of the expression cassette. (B) Experimental outline, (C) Results of % mCherry expression for individual cells across the various cell lines tested. GSC7 was the positive control cell line tested (from which the fragments were initially screened). E17, E28 (previously termed G328), E21, E31, E34 refers to the five additional patient-derived glioblastoma cell lines.
The experiment described in Example 8 was repeated in five patient-derived glioblastoma cell lines (E17, E21, E28, E31, E34).

huFb170 fibroblasts = assay: AAV2 transduction: mCherry and HSV-TKv5 expression in huFb170; conditions: AAV2 HSV-TK-v5-P2A-mCherry cassette
Procedure: as §1, §2, §3

GSC7 cells [4] = assay: Flow cytometry of mNGreen reporter in GSC7
Procedure: Cells were seeded at the required density. The following day the transfection was carried out. […] Following this step, the Plus reagent/Optimem premix was added to all DNA samples followed by the Lipofectamine LTX/Optimem premix. The transfection mix was incubated for 5 min at room temperature and then carefully dropped on the cells. Generally, no media change was carried out. Cells were analysed two days following transfection.
For flow cytometry, cells were detached, pelleted and resuspended in an appropriate volume of flow cytometry buffer (1% BSA in PBS, v/v). Cells were stained with Draq7 (Abcam, ab109202, f.c. 0.1 μM) as a live/dead stain and analysed using the BD LSRFortessa cell analyser (4 lasers, BD Bioscience).

B1: SSE-7: synthetic super-enhancer ID4310_ID4428_ID0785_ID3836, SEQ ID NO: 70 (nucleic acid)
DNA: TTGTCCTGCCTTTGAGAACACTGGAAGGGCACTGAAGGCTGACCAGCATGCACCTCACCCCACCTCCTCTCTGTCTCATCCTCAGCCATCTAAGCGGGAGACTCATCAGGCTTAAATTCTCATTCTTATCCAAGATTCTTCTGCTTCAAATGAGTCTAAATGGAGATCCTCCCATAAAGGGAGTTCTGTTTGGGCTTCCCTTGGAAGTCCATTGAAAGCGTTTCACATTTCAATGCTTCTTTACATTCTCCTCTAGAATGAATCTGGAAGGGCCATTTCATTCCAGCCCTATCAGATTTACTACTTCCTCCTGTAAGAATGAACTGGGCCCAGCTGGGCATTTGCATCAAAGTGCCTCACCAGAGTTCCCAGCTGCTCTGGCAGAGTGCCCAGGCTTGCCCCAGAGCCCAAACAGAATGCTCTTTGAGATGCCTCTGGTTTTCATACCCTTCCAGGGGAGCAGTTTCCTGGCTGTGTCGTCAGATACTGTGGTTTACGCTGTTCCGGAGTCTGGAGGTCTGTGTGCCTTTGATCTCTTTCCCAACTAATTTGCACAGCTGCTGTGGAGGCCCTCATGAATGACCTCTTTCTTTCCTTTCT
[1]
  mCherry reporter expression: High levels of expression
GSC7 cells [2]
  mCherry and HSV-TKv5 expression: driving both mCherry and HSV-TKv5 expression
[3]; E21, E31 and E34
  expression: lower frequency of expression
[3]; GSC7, E17 and E28
  expression: highly expressed and comparable to full-length CMV
[3]; all lines tested
  activity across cell lines: active in all cell lines
huFb170 fibroblasts
  mCherry and HSV-TKv5 expression: not in fibroblasts
GSC7 cells [4]
  expression level compared with positive control CMV, flow cytometry: higher than CMV
  fluorescence intensity compared with CMV: higher intensity than CMV
